The values below come from patent publication US20040001842A1.

In assay [1] the target is CCK-B/gastrin receptor on AR42J cells (rat pancreatic adenocarcinoma) (rat) (UniProt P30553). Nature of the assay: radioligand inhibition on AR42J cells, GnRH against 125I-hG17.
The target of assay [2] is human CCK-B/gastrin receptor (human) (UniProt P32239). The experiment in a line: 125I-labelled serum injected into nude mice with C170HM2 liver xenografts, CPM/g.
Assay [3] addresses affinity purified rabbit Anti-GRE11 antibodies. Nature of the assay: quantitative immunofluorescence on H69 cells, peptide as inhibitor, relative to GnRH.
Assay [4] shares this target. The experiment in a line: quantitative immunofluorescence on H69 cells, 1:1 mixture of GRE1 and GRE6 as inhibitor, relative to GnRH.
Assay [5] concerns the target Affinity purified rabbit anti-GRE1 antibodies. Nature of the assay: inhibition ELISA, mixture of GRE1 EPT and Ser spacer in solution against GRE1-Ser-BSA on the plate.
For assay [6] the target is unchanged. The experiment in a line: inhibition ELISA, peptide in solution against GRE1-Ser-BSA on the plate.

Chain of UniProt P30553 (P30553 whole entry): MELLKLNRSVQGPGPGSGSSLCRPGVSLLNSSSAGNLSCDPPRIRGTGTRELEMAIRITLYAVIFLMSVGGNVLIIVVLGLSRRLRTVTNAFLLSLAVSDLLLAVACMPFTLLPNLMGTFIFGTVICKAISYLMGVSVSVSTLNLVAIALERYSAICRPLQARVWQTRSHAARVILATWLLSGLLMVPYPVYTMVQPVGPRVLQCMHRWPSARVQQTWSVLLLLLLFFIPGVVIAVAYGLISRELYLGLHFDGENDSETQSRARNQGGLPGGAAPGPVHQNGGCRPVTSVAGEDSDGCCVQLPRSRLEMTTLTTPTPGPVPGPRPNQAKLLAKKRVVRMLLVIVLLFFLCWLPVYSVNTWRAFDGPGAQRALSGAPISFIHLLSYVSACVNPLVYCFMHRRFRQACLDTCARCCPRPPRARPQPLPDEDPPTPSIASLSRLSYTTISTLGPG

“gonadotropin releasing hormone (from UniProt P01148 24-33) (peptide)” gave a % inhibition of 125I-hG17 binding in assay [1] of 6%. Take normal rabbit serum: the liver tumor/liver ratio of radiolabel in assay [2] was 1. In the case of MELLKLNRSVQGTGPGPGASLC [GRE11 peptide], the percent inhibition of antibody binding in assay [3] was determined as 84%. Consider MELLKLNRSVQGC [GRE6 peptide], for which the percent inhibition of antibody binding in assay [3] stood at 4%. For the molecule KLNRSVQGTGPGPGASL [GRE1 EPT peptide], the figures for the percent inhibition of antibody binding in assay [4] and in assay [3] were 49% and 57%, respectively. For the same molecule, the % inhibition in assay [5] and in assay [6] was 60% throughout.
